For the assay, the target named is T1, HLA-A*02:01 (human).
T1 construct: MHC monomers captured on streptavidin plates; the UV-sensitive peptide is cleaved and exchanged with the test peptide; also called peptide-receptive MHC molecules; MHC class I
The assay can be described thus: UV ligand-exchange ELISA (anti-b2m); +++ = exchange yield >=50. The source says:
Candidate peptides for T cell based therapies according to the present invention were further tested for their MHC binding capacity (affinity). The individual peptide-MHC complexes were produced by UV-ligand exchange, where a UV-sensitive peptide is cleaved upon UV-irradiation, and exchanged with the peptide of interest as analyzed. Only peptide candidates that can effectively bind and stabilize the peptide-receptive MHC molecules prevent dissociation of the MHC complexes. To determine the yield of the exchange reaction, an ELISA was performed based on the detection of the light chain (β2m) of stabilized MHC complexes. The assay was performed as generally described in Rodenko et al. (Rodenko et al., 2006).
96 well MAXISorp plates (NUNC) were coated over night with 2 ug/ml streptavidin in PBS at room temperature, washed 4× and blocked for 1 h at 37° C. in 2% BSA containing blocking buffer. Refolded HLA-A*02:01/MLA-001 monomers served as standards, covering the range of 15-500 ng/ml. Peptide-MHC monomers of the UV-exchange reaction were diluted 100 fold in blocking buffer. Samples were incubated for 1 h at 37° C., washed four times, incubated with 2 ug/ml HRP conjugated anti-β2m for 1 h at 37° C., washed again and detected with TMB solution that is stopped with […]. Absorption was measured at 450 nm. […]
Background: ELISA stands for enzyme-linked immunosorbent assay.

For SLTGANITV, the peptide exchange yield lay within 50 to 75%.

The values are drawn from US20160279215A1, “NOVEL PEPTIDES AND COMBINATION OF PEPTIDES FOR USE IN IMMUNOTHERAPY AGAINST VARIOUS TUMORS” (immatics biotechnologies GmbH, priority 2015, published 2016).
